How the values were obtained:
[1] = molecular target: T1, human sortilin (R&D Systems, 3154-ST) (human, UniProt Q99523 78-755); assay: SPR; Biacore 8K, affinity determination of second-generation constructs; 30-100 RU of ABD035-containing constructs captured on immobilised HSA (CM5); 1-200 nM human sortilin injected 180 s at 30 µl/min, 25°C, PBST; 60 min dissociation; 1:1 Langmuir fit; apparent constants; n=3 technical replicates; conditions: both partners purified
T1 construct: sortilin, human, recombinant protein bought from R&D Systems (3154-ST); also called hSort; SORT1; source: bought: R&D Systems (3154-ST)
T1 sequence (looked up): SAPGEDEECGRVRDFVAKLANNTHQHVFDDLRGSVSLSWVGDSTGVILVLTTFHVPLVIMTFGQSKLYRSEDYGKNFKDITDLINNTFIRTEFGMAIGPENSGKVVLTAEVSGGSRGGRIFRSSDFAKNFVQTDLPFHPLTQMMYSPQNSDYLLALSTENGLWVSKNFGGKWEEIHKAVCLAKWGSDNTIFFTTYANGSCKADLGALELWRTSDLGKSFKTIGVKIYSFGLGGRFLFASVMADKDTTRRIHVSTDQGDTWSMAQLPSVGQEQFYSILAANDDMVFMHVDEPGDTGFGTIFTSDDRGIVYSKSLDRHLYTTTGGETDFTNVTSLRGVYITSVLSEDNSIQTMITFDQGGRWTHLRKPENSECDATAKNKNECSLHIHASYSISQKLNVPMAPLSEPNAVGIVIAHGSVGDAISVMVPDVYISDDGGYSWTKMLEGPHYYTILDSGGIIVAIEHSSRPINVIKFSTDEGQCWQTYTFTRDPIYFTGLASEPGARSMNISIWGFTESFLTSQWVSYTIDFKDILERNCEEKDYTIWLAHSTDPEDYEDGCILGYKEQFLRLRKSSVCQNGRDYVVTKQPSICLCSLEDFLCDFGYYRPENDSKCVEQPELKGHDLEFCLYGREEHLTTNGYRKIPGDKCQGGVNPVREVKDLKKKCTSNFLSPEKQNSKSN

[2] = molecular target: T2, sortilin on the surface of U-251 and PC-3 cells (human (endogenous in U-251 and PC-3), UniProt Q99523 78-831); assay: cell-based or functional assay
T2 sequence (looked up): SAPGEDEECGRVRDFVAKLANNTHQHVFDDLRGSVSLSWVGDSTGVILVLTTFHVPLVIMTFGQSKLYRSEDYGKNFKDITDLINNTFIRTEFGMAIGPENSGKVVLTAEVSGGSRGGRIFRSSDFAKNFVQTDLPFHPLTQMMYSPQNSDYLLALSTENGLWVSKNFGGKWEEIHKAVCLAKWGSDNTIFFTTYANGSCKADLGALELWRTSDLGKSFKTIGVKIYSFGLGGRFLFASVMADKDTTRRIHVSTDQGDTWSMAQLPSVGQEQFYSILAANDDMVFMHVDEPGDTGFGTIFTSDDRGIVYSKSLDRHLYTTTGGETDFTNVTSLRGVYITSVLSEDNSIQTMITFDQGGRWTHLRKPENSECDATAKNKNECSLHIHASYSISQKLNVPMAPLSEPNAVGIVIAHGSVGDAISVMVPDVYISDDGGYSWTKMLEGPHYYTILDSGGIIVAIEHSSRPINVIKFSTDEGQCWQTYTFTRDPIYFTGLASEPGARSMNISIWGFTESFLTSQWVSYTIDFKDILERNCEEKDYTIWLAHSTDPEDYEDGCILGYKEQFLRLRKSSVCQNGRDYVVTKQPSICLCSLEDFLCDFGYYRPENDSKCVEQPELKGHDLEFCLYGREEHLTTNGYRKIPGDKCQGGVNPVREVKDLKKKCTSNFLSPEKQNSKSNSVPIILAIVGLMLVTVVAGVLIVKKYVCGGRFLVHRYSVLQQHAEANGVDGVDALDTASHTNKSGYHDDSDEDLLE

Kd [1]: 15.9 nM | koff [1]: 0.00337 s⁻¹ | kon [1]: 212000 M⁻¹ s⁻¹ | PGRN clearance assay: fold increase of extracellular PGRN (ELISA) against untreated U-251 cells after 72 h, at the highest tested concentration (500 nM); no plateau, no EC50 [2]: ≤ 1.44 fold
B1: ABD-PGRNC21* (His6-ABD035-PGRNC21*) (peptide, UniProt P28799 573-593, looked up)
chain: LRREAPRWDAPLRDPGLRQLL
notes: progranulin (PGRN), human, the 21 C-terminal residues L573-L593 (PGRNC21) with A588G (PGRNC21*); numbers count from the start codon; also called the PGRN C-terminus; PGRNC alone; source: E. coli BL21 Star, purified (IMAC, HisPur Cobalt); not shown: ABD035, N-terminal, kept

Source: paper PMC11342335, “An anti-sortilin affibody-peptide fusion inhibits sortilin-mediated progranulin degradation” (Frontiers in Immunology, 2024)
